{
  "source": "the supplement of paper PMC10567573",
  "experiment": "protein stability index of a GFP-peptide fusion (GPS, HEK-293T) (PSI 1-6); higher = more stable",
  "data": [
    {"protein": "YSEYPECCVDVKPISQEKIESERA", "note": "[DUSP5 WT]", "values": [
      {"measurement": "protein stability index", "setting": "parent: IOH62976_23, c terminus: a fixed tail appended", "value": 4.09}
    ]},
    {"protein": "FTPPTSLTRAGMSYYNSPGLHVQH", "values": [
      {"measurement": "protein stability index", "setting": "parent: IOH61736_64, c terminus: a fixed tail appended", "value": 1.82}
    ]},
    {"protein": "FHGTRQYKFDPKTKRILTLQKANS", "values": [
      {"measurement": "protein stability index", "setting": "parent: IOH59103_74, c terminus: a fixed tail appended", "value": 1.72}
    ]},
    {"protein": "AGSRQALSFEVPPCNYDPEKWIQ", "note": "[MGC16075 WT]", "values": [
      {"measurement": "protein stability index", "setting": "parent: IOH57016_8, c terminus: native", "value": 1.84}
    ]},
    {"protein": "HDPLYGKLFSTYLRPPHTSRGTSQ", "note": "[LPCAT4 WT]", "values": [
      {"measurement": "protein stability index", "setting": "parent: IOH62663_80, c terminus: a fixed tail appended", "value": 2.6}
    ]},
    {"protein": "YTPDLPRADVDHAIEKAFQLWSNV", "values": [
      {"measurement": "protein stability index", "setting": "parent: IOH59103_21, c terminus: a fixed tail appended", "value": 1.83}
    ]},
    {"protein": "QVANSAFVERVRKRGFEVVYMTEP", "values": [
      {"measurement": "protein stability index", "setting": "parent: IOH61079_83, c terminus: a fixed tail appended", "value": 2.26}
    ]},
    {"protein": "CRNCINLQNEAQKRESFLKYKCLL", "values": [
      {"measurement": "protein stability index", "setting": "parent: IOH62149_105, c terminus: a fixed tail appended", "value": 2}
    ]},
    {"protein": "EKQKQPRWREGTKDSHDPLPSWAE", "values": [
      {"measurement": "protein stability index", "setting": "parent: IOH61084_93, c terminus: a fixed tail appended", "value": 2.16}
    ]},
    {"protein": "DDLTVVDAASLRRQIIKLNRRLQL", "values": [
      {"measurement": "protein stability index", "setting": "parent: IOH62657_32, c terminus: a fixed tail appended", "value": 2.1}
    ]},
    {"protein": "ETIQGFWLLTKIDHWNNEKERILL", "note": "[TPRG1 WT]", "values": [
      {"measurement": "protein stability index", "setting": "parent: IOH59452_16, c terminus: a fixed tail appended", "value": 2.09}
    ]},
    {"protein": "TLFKKIQALQKEKETLAVNYEKEE", "values": [
      {"measurement": "protein stability index", "setting": "parent: IOH61736_20, c terminus: a fixed tail appended", "value": 3.05}
    ]},
    {"protein": "HMFTPKLDKMLDPQVWREAATQVF", "values": [
      {"measurement": "protein stability index", "setting": "parent: IOH55656_48, c terminus: a fixed tail appended", "value": 1.92}
    ]},
    {"protein": "EADKNDKAVKDLVVLLFETALLSS", "values": [
      {"measurement": "protein stability index", "setting": "parent: IOH61079_108, c terminus: a fixed tail appended", "value": 1.84}
    ]},
    {"protein": "EGLLRFSSWPFSIQDVVQPLTLQV", "values": [
      {"measurement": "protein stability index", "setting": "parent: IOH56238_29, c terminus: a fixed tail appended", "value": 2.09}
    ]},
    {"protein": "FTSPDYQQQCHEMAERLEDSVLKG", "note": "[C1orf55 WT]", "values": [
      {"measurement": "protein stability index", "setting": "parent: IOH61664_26, c terminus: a fixed tail appended", "value": 2.15}
    ]},
    {"protein": "FTQSGPIVSRATGRCLEVEMSKDA", "note": "[GALNT9 WT]", "values": [
      {"measurement": "protein stability index", "setting": "parent: IOH59749_32, c terminus: a fixed tail appended", "value": 2.02}
    ]},
    {"protein": "YCSIKCQQEHWHAEHKRTCRRKR", "note": "[ZMYND11 WT]", "values": [
      {"measurement": "protein stability index", "setting": "parent: IOH62570_82, c terminus: native", "value": 2.53}
    ]},
    {"protein": "YTEGISQRMRVPEKLKVAPPNADL", "values": [
      {"measurement": "protein stability index", "setting": "parent: IOH62657_3, c terminus: a fixed tail appended", "value": 2.94}
    ]},
    {"protein": "FGEDGIFRHDRLRFRDFVDALEDS", "values": [
      {"measurement": "protein stability index", "setting": "parent: IOH61084_108, c terminus: a fixed tail appended", "value": 2.59}
    ]},
    {"protein": "FCASTRLPPTPLLLFPEEEATNGR", "values": [
      {"measurement": "protein stability index", "setting": "parent: IOH56238_25, c terminus: a fixed tail appended", "value": 2.88}
    ]},
    {"protein": "EQVFSLGDGVSGGFFGIRDSSFL", "note": "[ZBED1 WT]", "values": [
      {"measurement": "protein stability index", "setting": "parent: IOH55626_115, c terminus: native", "value": 3.38}
    ]},
    {"protein": "RQHHHQSSFPGSLPQETNLTLKVC", "values": [
      {"measurement": "protein stability index", "setting": "parent: IOH57371_7, c terminus: a fixed tail appended", "value": 2.86}
    ]},
    {"protein": "KAVEEELDAEDRPAWNSKLQYILA", "values": [
      {"measurement": "protein stability index", "setting": "parent: IOH55656_9, c terminus: a fixed tail appended", "value": 2.81}
    ]},
    {"protein": "RGRHEQSPTSRPRKVSSLPPRSC", "values": [
      {"measurement": "protein stability index", "setting": "parent: IOH58746_22, c terminus: native", "value": 2.58}
    ]},
    {"protein": "FVRGDHRDNSPFDGPGGNLAHAFQ", "values": [
      {"measurement": "protein stability index", "setting": "parent: IOH59103_28, c terminus: a fixed tail appended", "value": 1.98}
    ]},
    {"protein": "FMPAMQFSIPPWRYDAEVVAIAQK", "note": "[KIAA1161 WT]", "values": [
      {"measurement": "protein stability index", "setting": "parent: IOH61072_98, c terminus: a fixed tail appended", "value": 1.76}
    ]},
    {"protein": "FDKEWVAKQTKRMLDMKVNPIQGL", "values": [
      {"measurement": "protein stability index", "setting": "parent: IOH62819_23, c terminus: a fixed tail appended", "value": 1.75}
    ]},
    {"protein": "VEKVLRRWVDEEWPKRERGDPSRH", "note": "[EDARADD WT]", "values": [
      {"measurement": "protein stability index", "setting": "parent: IOH59721_31, c terminus: a fixed tail appended", "value": 2.77}
    ]},
    {"protein": "YQSFVQFLQYYYQSGCLYRLRALG", "note": "[TMEM120A WT]", "values": [
      {"measurement": "protein stability index", "setting": "parent: IOH55078_39, c terminus: a fixed tail appended", "value": 2.71}
    ]},
    {"protein": "PRGRAHLLPNPYQQDFLGLPEELR", "values": [
      {"measurement": "protein stability index", "setting": "parent: IOH58746_12, c terminus: a fixed tail appended", "value": 3.93}
    ]},
    {"protein": "ISKKFGDMSYSIRHSISMPAMRNS", "note": "[TPD52L1 WT]", "values": [
      {"measurement": "protein stability index", "setting": "parent: IOH59709_21, c terminus: a fixed tail appended", "value": 2.22}
    ]},
    {"protein": "TPMTIPEFFRESVNRFGTYPALAS", "values": [
      {"measurement": "protein stability index", "setting": "parent: IOH62594_9, c terminus: a fixed tail appended", "value": 2.12}
    ]},
    {"protein": "MAEISRIQYEMEYTEGISQRMRVP", "values": [
      {"measurement": "protein stability index", "setting": "parent: IOH62657_1, c terminus: a fixed tail appended", "value": 2.65}
    ]},
    {"protein": "LPQETNLTLKVCKPQAPQKLDPTL", "values": [
      {"measurement": "protein stability index", "setting": "parent: IOH57371_9, c terminus: a fixed tail appended", "value": 3.74}
    ]},
    {"protein": "KIREKEEWIKLDYHRRHNPKTNED", "values": [
      {"measurement": "protein stability index", "setting": "parent: IOH62149_64, c terminus: a fixed tail appended", "value": 4.36}
    ]},
    {"protein": "LPVETLGPASRMDPESERALQAPH", "values": [
      {"measurement": "protein stability index", "setting": "parent: IOH61084_4, c terminus: a fixed tail appended", "value": 4.39}
    ]},
    {"protein": "FAQADALKGTLVSTLKEVKPTVFI", "values": [
      {"measurement": "protein stability index", "setting": "parent: IOH62594_50, c terminus: a fixed tail appended", "value": 1.64}
    ]},
    {"protein": "CCSSADICPKCWTLMTMAIRIIDR", "note": "[PRIM1 WT]", "values": [
      {"measurement": "protein stability index", "setting": "parent: IOH60890_21, c terminus: a fixed tail appended", "value": 1.95}
    ]},
    {"protein": "YHTSQSGDEMTSLSEYVSRMKETQ", "values": [
      {"measurement": "protein stability index", "setting": "parent: IOH61079_77, c terminus: a fixed tail appended", "value": 3.7}
    ]},
    {"protein": "ASVTIQARAEQEEEFISNTLFKKI", "values": [
      {"measurement": "protein stability index", "setting": "parent: IOH61736_17, c terminus: a fixed tail appended", "value": 3.51}
    ]},
    {"protein": "YAELGQCSVFPATDAPEQFISQVT", "values": [
      {"measurement": "protein stability index", "setting": "parent: IOH57150_92, c terminus: a fixed tail appended", "value": 2.17}
    ]},
    {"protein": "MFFKDRFYMRTNPFYPEVELNFIS", "values": [
      {"measurement": "protein stability index", "setting": "parent: IOH59103_50, c terminus: a fixed tail appended", "value": 2.27}
    ]},
    {"protein": "WIHCFEGVTAIIFCVALSDYDLVL", "note": "[GNAI1 WT]", "values": [
      {"measurement": "protein stability index", "setting": "parent: IOH55111_36, c terminus: a fixed tail appended", "value": 2.97}
    ]},
    {"protein": "LQQLRARLQGLEADCVRGPDGVCL", "values": [
      {"measurement": "protein stability index", "setting": "parent: IOH61084_56, c terminus: a fixed tail appended", "value": 2.22}
    ]},
    {"protein": "FVAENSSLHPESGQENDATSPHFS", "note": "[CD69 WT]", "values": [
      {"measurement": "protein stability index", "setting": "parent: IOH57037_2, c terminus: a fixed tail appended", "value": 2.9}
    ]},
    {"protein": "YQSGGRIRRPVNVPIDIFSEEIRF", "values": [
      {"measurement": "protein stability index", "setting": "parent: IOH61428_28, c terminus: a fixed tail appended", "value": 2}
    ]},
    {"protein": "EADYEDDSKIAFLMQLQDIQYLTE", "values": [
      {"measurement": "protein stability index", "setting": "parent: IOH62149_110, c terminus: a fixed tail appended", "value": 3.05}
    ]},
    {"protein": "MELLRTITYQPAASTKMCEQALGK", "values": [
      {"measurement": "protein stability index", "setting": "parent: IOH57150_1, c terminus: a fixed tail appended", "value": 2.16}
    ]},
    {"protein": "LNFQIEHHLFPTMPRHNYHKVAPL", "note": "[FADS1 WT]", "values": [
      {"measurement": "protein stability index", "setting": "parent: IOH55275_64, c terminus: a fixed tail appended", "value": 2.38}
    ]},
    {"protein": "ITQSWQVSVRVQPRGRAHLLPNPY", "values": [
      {"measurement": "protein stability index", "setting": "parent: IOH58746_10, c terminus: a fixed tail appended", "value": 1.87}
    ]},
    {"protein": "GERVVINISGLRFETQLKTLCQFP", "values": [
      {"measurement": "protein stability index", "setting": "parent: IOH61428_18, c terminus: a fixed tail appended", "value": 2.31}
    ]},
    {"protein": "VAHVKHLSASQKALKEKEKASWSS", "values": [
      {"measurement": "protein stability index", "setting": "parent: IOH62819_9, c terminus: a fixed tail appended", "value": 3.21}
    ]}
  ]
}
